Data on 41 sequences can be found in the nanobody polyreactivity screen of Harvey et al. (2022).

A short description of this series: yeast display, Sf9 membrane polyspecificity reagent, FACS + sequencing; frameworks hold sequencing errors. The method in brief:
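A synthetic nanobody library was expressed on Saccharomyces cerevisiae BJ5465 by galactose induction for 36–48 hours. The library was stained for 1 hour at 4 °C with 10% biotinylated, detergent-solubilized Sf9 membrane reagent and enriched with streptavidin microbeads before FACS. Low and high (top ~1%) gates were set on anti-HA fluorescence for expression and streptavidin fluorescence for reagent binding, and each polyreactivity label reflects the gate of origin.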
Turning to “QVQLVESGGGLVQAGGSLRLSCAASGLIFDHNAMGWYRQAPGKERELVAAISYSGARTYYADSVKGRFTISRDNAKNTVYLQMYSLKPEDTAVYYCNAVINSHRRHVTYDYWGQGSQVTVSS”, the “polyreactivity (PSR sort gate)” value was “high polyreactivity”.
Under “QVQLVESGGGLVQAGGSLRLSCAASGLIFDIYAMGWYRQAPGKERELVATISKRGGTTSYADSVKGRFTISRDNAKNTVYLQMNSLKPEDTAVYYCAATTLIAYDYWGQGTQVTVSS” stands “high polyreactivity”; under “QVQLVESGGGLVQAGGSLRLSCAASGLIFDPYAMGWYRQAPGKERELVAAITWSGDSTSYADSVKGRFTISRDNAKNTVYLQMNSLKPEDTAVYYCAADGWSRSWGYWVHYGYWGQGTQVTVSS”, “low polyreactivity”.
Under “QVQLVESGGGLVQAGGSLRLSCAASGLIFDSYAMGWDRQAPRKERELVAAITYTGGSTYYADSVKGRFTISRDNAKNSVYLQMNSLKPEDTAVYYCAARRQRERYGYWGQGTQVTVSS” stands “high polyreactivity”; under “QVQLVESGGGLVQAGGSLRLSCAASGLIFDVYDMGWYRQAPGKERELVAAISTTGGSTFYADSVKGRFTISRDNAKNTVYLQMYSLKPEDTAVYYCNADWAPTGFSGGYPYDYWGQGTQVTVSS”, “high polyreactivity”.
Under “QVQLVESGGGLVQAGGSLRLSCAASGLIFFNYYAMGWYRQAPGKERELVAAIRYGGGSTYYADSVKGRFTISRDNAKNTVYLLMNSLKPEDTAVDYCAARFKGYYRYGYWGQGTQVTVSS” stands “high polyreactivity”; under “QVQLVESGGGLVQAGGSLRLSCAASGLIFGFYAMGWYRQAPGKEWELVAAINSGGITYYADSVKGRFTISRDNAKNTVYLQMNSLKPEDTSVYYCAAVHSRRARYDYWGQGTQVTVSS”, “low polyreactivity”.
On to “QVQLVESGGGLVQAGGSLRLSCAASGLIFGGNAMGWYRQAPGKERELVAAISRSTGRTYYADSVKGRFTISRDNEKNTVYLQMNSLKPEDTAVYYCNAVGYAFPSYDSWGQGTQVTVSS”, for which the “polyreactivity (PSR sort gate)” value is “high polyreactivity”.
For the sequence “QVQLVESGGGLVQAGGSLRLSCAASGLIFGGNAMGWYRQAPGKERELVAAISRSTGRTYYADSVKGRFTISRDTAKNTVYLQMNSLKPEDTAVYYCNAVGYAFPSYDSWGQGTQVTVSS”, the “polyreactivity (PSR sort gate)” value is recorded as “high polyreactivity”.
Regarding “QVQLVESGGGLVQAGGSLRLSCAASGLIFGLYSMGWYRQAPGKERELVAAISYRTDSTYADSVKGRFTISRDNAKNTVYLQMNSLKPEDTAVYYCAADLRVSVRYYYWGQGTQVTVSW”, the “polyreactivity (PSR sort gate)” value is given as “low polyreactivity”.
For “QVQLVESGGGLVQAGGSLRLSCAASGLIFGPYAMGWYRQAPGKERELVAAISARGGSTRYADSVKGRFTISRDNAKNTVYLQMNSLKPEDTAVYYCAASTWYGYDYWGQGTQVTVSS” the value was “high polyreactivity”; for “QVQLVESGGGLVQAGGSLRLSCAASGLIFGRNAMGWYRQAPGKERELVAAINNSGGTTYYADSVKGRFTISRDNAKNTVYLQMNSLKPEDTAVYYCNAYFRNWRYSPGGYWGQGTQVTVSS”, “high polyreactivity”.
Consider “QVQLVESGGGLVQAGGSLRLSCAASGLIFGSNAMGWYRQAPGKERELVAAISSGGTTKYADSVKGRFTISRDNAKNTVYLQMNSLKPEDTAVYYCAAQDYSYTTRFQDDYWGQGTQVTVSS”, for which the “polyreactivity (PSR sort gate)” value is listed as “low polyreactivity”.
Under “QVQLVESGGGLVQAGGSLRLSCAASGLIFGTYAMGWYREARGIERELVAAITSGGRTYYADSVKGRFTISRDNAKNTVYLQLNSLKPEATAVYYCAAVLSQWGAVFLYVLSTGLDYWGQGTQVTVSS” stands “low polyreactivity”.
Turning to “QVQLVESGGGLVQAGGSLRLSCAASGLIFGWYAMGWYRPEPGKEREFVASIRYGGGSTYYADSVKGRFTISRDNAKNTVYLQMNSLKPEDTAVYYCAADRYPWHLQYVEYDSDYWGQGTQVTVSS”, the “polyreactivity (PSR sort gate)” value is listed as “low polyreactivity”.
Turning to “QVQLVESGGGLVQAGGSLRLSCAASGLIFGYYAMGWYRQAPGKEREFVAAISGTGGSTYYADSVKGRFTISRDNAKNTVYLQMNSLKPEDTAVYYCAARQGWWRFYAYDYWGQCTQVTVSS”, the “polyreactivity (PSR sort gate)” value was “high polyreactivity”.
Regarding “QVQLVESGGGLVQAGGSLRLSCAASGLIFGYYAMGWYRQAPGKERELVAAITSSGASTYYADSVKGRFTISRDNAKNSVYLQMNSLKPEDTAVYYCNKYRYRSLGYDYWGQGTQVTVSS”, the “polyreactivity (PSR sort gate)” value is “high polyreactivity”.
As to “QVQLVESGGGLVQAGGSLRLSCAASGLIFGYYAMGWYRQAPGKERELVAVISYSGGSTYYADSVKGRFTITRDNAKNTVYLQMNSLNPEDTAVYYCNTYGAYYRHTKEYGYWGQGTQVTVSS”, the “polyreactivity (PSR sort gate)” value is on record as “high polyreactivity”.
As for “QVQLVESGGGLVQAGGSLRLSCAASGLIFHRNAMGWYRQAPGKERELVAAITKTGGGTYYADSVKGRFTISLDNAKNTVYLQMNSLKPEDTAVYYCAADTQRTFYYWGQGTQVTVSS”, the “polyreactivity (PSR sort gate)” value was “low polyreactivity”.
For “QVQLVESGGGLVQAGGSLRLSCAASGLIFKRYAMGWYRQAPGKERELVAAISSGTRTYYADSVKGRFTISRDNAKNTVYLQMNSLKPEDTAVYYCAARLDYWGQGTQVTVSS” the value was “high polyreactivity”; for “QVQLVESGGGLVQAGGSLRLSCAASGLIFKYYAMGWYRQAPGKERELVAAITGRGGSTYYADSVKGRFTISRDNAKNTVYLQMNSLKPEDTAVYYCARRRTYSFNPVTYDWGQGTQVTVSS”, “high polyreactivity”; for “QVQLVESGGGLVQAGGSLRLSCAASGLIFLRNAMGWYRQAPGKERELVAAISRSGGSTYYADSVKGRFTISRDYAKNTVYLQMNSLKPDDTAVYYCAKYGYGGVIPGPDHYDYWGQGTQVTVSS”, “high polyreactivity”.
Under “QVQLVESGGGLVQAGGSLRLSCAASGLIFNLYAMGWYRQAPGKEREFVATITGIGGSTYYADSVKGRFTISRDIAKNTVYLQMNSLKPDDTAVYYCAADAWFVPYNYWGQGTQVTVSS” stands “low polyreactivity”; under “QVQLVESGGGLVQAGGSLRLSCAASGLIFNLYAMGWYRQAPGKEREFVATITGIGGSTYYADSVKGRFTISRDNAKNTVYLQMNSLKPEDTAVYYCAADAWFLPYNDWGQGTQVTVSS”, “low polyreactivity”.
As for “QVQLVESGGGLVQAGGSLRLSCAASGLIFNRYVMGWYRQARGKERELVAAITCSGDSTYYADSVKGRFTISRDNAKNTVYLQMNSLKPVDTAVYYCAAWDYRYTDREGDYWGPGTQVTVSS”, the “polyreactivity (PSR sort gate)” value is given as “high polyreactivity”.
For “QVQLVESGGGLVQAGGSLRLSCAASGLIFNTYAMGWYRQAPGKDRELVAAITDGGGTNYADSVKGRFTISRDNAKNTVYLQMNSLKPEDTAVYYCAARLASWPLTYDFQWYEYWGQGTQVTVSS” the value was “low polyreactivity”; for “QVQLVESGGGLVQAGGSLRLSCAASGLIFNYYAMGWYRPAPGKERELVAAIYNGGSTYADSVKGRFTISRDNAKNTVYLQMNSLKPEDTAVYYCNTDDPDRDNDVKSIDYDYWGQGTQVTVSS”, “low polyreactivity”.
Under “QVQLVESGGGLVQAGGSLRLSCAASGLIFNYYAMGWYRQAPGKEREFVAAISGRGGNTYYADSVKVRFTISRDNAKTTVYLQINSLKPEDTAVYYCAARRYYSNREYDYWGQGTQVTVSS” stands “high polyreactivity”; under “QVQLVESGGGLVQAGGSLRLSCAASGLIFPAYAMGWYRQAPGKERELVAAISYSGGRTYYADSVKGRVTISRDNAKNTVYLQMNSLKPEDTAVYYCNTGYWYVSLGSYDYYGEYDYWGQGTQVTVSS”, “high polyreactivity”; under “QVQLVESGGGLVQAGGSLRLSCAASGLIFPGYAMGWYRQAPGKERELVAAISWSGGTTYYADSVKGRFTISRDNAKNTVYLQMNSLKPEDTAVYYCNAVYLQGYDYWGQGTQVTVSS”, “low polyreactivity”.
In the case of “QVQLVESGGGLVQAGGSLRLSCAASGLIFPPNAMGWYRQAPGKERELVASITRSGVSTNYADSVKGRFTISRDNAKNTVYLQMNSLKPEDTAVYYCAAVIYSTYTIPNDEMGYWGHGTQVTVSS”, the “polyreactivity (PSR sort gate)” value is “low polyreactivity”.
Turning to “QVQLVESGGGLVQAGGSLRLSCAASGLIFPRYAMGWYRQAPGKERELVAAITRGGSTYYADSVKGRFTISRDNAKNTVYLQMNSLKPEATAVYDCNAELPVHCSWYDYWGQGTQVTVSS”, the “polyreactivity (PSR sort gate)” value is recorded as “low polyreactivity”.
Under “QVQLVESGGGLVQAGGSLRLSCAASGLIFPRYAMGWYRQAPGKERELVAAITRGGSTYYADSVKGRFTISRDNAKNTVYLQMNSLNPEDTAVYYCTAELPVHWSWYDYWGQGPQVTVSS” stands “low polyreactivity”; under “QVQLVESGGGLVQAGGSLRLSCAASGLIFPRYAMGWYRQAPGKVSELVAAITWSGGSTFYADSVKGRFTISRDTAKNTVYLQMNSLKPEDTAVYYCAAQDASERTYGYDGYYYWGQGTQVTVSS”, “low polyreactivity”.
Turning to “QVQLVESGGGLVQAGGSLRLSCAASGLIFPRYGMGWYRQAPGKERELVAAISRSGGNTYYADSVKGRFTISRDNAKNTVYLQMNSLKPEDTAVYYCAAYFSTAPKSQYKLDYRGQGTQVTVSS”, the “polyreactivity (PSR sort gate)” value is given as “high polyreactivity”.
For “QVQLVESGGGLVQAGGSLRLSCAASGLIFPRYTMGWYRQAPGKERELVAAIRGTGGSTYYADSVKGRFTISRDNPKNTVYLQLNSLKPEDTAVYYCATRGKSHGQQFNYWGQGTQVTVSS” the value was “high polyreactivity”.
With “QVQLVESGGGLVQAGGSLRLSCAASGLIFPVYAMGWYRQAPGKEREFVASIWRGGTTYYADSVKGRFTISRDNAKNTVYLQMNSLKPEDTAVYYCAARYYPRGLVFPFTKYDYWGQGTQVTVSS”, the “polyreactivity (PSR sort gate)” value is reported as “high polyreactivity”.
For “QVQLVESGGGLVQAGGSLRLSCAASGLIFPYYTMGWYRQAPGKERELVAAISWRGGGTFYADSVKGRFTISRDNAKNTVYLQMNSLNPEDTAVYYCAAQLYPYRWYYWGQGTQVTVSS”, the “polyreactivity (PSR sort gate)” value was “high polyreactivity”.
Under “QVQLVESGGGLVQAGGSLRLSCAASGLIFQSYAMGWYRQAPGKERELVAVITWSGTSTYADSVKGRFTISRVNAKNTVYLQMNSLKPEDTAVYYCAASKYGSFTNFGYWGQGTQVTVSS” stands “low polyreactivity”.
Take “QVQLVESGGGLVQAGGSLRLSCAASGLIFQYYAMGWSRQAPGKERELVASISWSGSSTYYADSVKGRFTISRDNAKNTVYLQMISLKPEDTAVYYCAAGWGRGWYDYWGQGTQVTVSS”: the “polyreactivity (PSR sort gate)” value is on record as “high polyreactivity”.
Under “QVQLVESGGGLVQAGGSLRLSCAASGLIFRAYAMGWYRQAPGKERELVAAISRRGGSTYYADSVKGRFTISRDNANNTVYLQMNSLKPEDSAVYYCNKDSRSWPFKYDYWGQGTQVTVSS” stands “high polyreactivity”.
